In one data set the target is T1, Fox-1 RRM S155A (UniProt Q9NWB1 109-208, S155A).
T1 sequence: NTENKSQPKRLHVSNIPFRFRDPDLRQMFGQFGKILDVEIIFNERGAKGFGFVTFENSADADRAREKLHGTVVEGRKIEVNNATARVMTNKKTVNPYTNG
Put plainly: NMR (1H-1H TOCSY); 1:1 ratio, 20 mM NaCl, pH 6.5, 40 C; switchSENSE: 10 mM Tris-HCl pH 7.4, 140 mM NaCl, 0.05% Tween20, 25 C; NMR: 10 mM phosphate pH 6.5, 20 mM NaCl, 40 C. Particulars: protein: recombinant; tags: N-terminal 6xHis (pET28a); single strand.

A further data set addresses T2, Fox-1 RRM WT (UniProt Q9NWB1 109-208).
T2 sequence: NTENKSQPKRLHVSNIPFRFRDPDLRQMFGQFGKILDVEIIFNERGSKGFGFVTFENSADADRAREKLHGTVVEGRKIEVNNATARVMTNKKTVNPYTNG
The data set is described as above. Particulars: protein: recombinant; tags: N-terminal 6xHis (pET28a); single strand.

B1: 5'-UGCAUGU-3' RNA oligonucleotide (NMR) (ssRNA)
RNA: UGCAUGU
Consider B1, for which the binding result in the data set with Fox-1 RRM S155A and with Fox-1 RRM WT was “binds” each time.

Source of the values: paper PMC5737849, “Structural study of the Fox-1 RRM protein hydration reveals a role for key water molecules in RRM-RNA recognition”.
